Measurements: patent publication US10357572B2, “Prodrugs activated by caspase” (priority 2014, dated 2019)
Starred links: 1 amine or outer side, 2 acyl side, 3 side chain; linkers in the order of their positions; H or OH if unused. Non-standard residues stand in square brackets, D forms with d. Residues, ends and D or L forms follow the SMILES beside them. *: point of attachment. Doxorubicin(3'-N) = COc1cccc2c1C(=O)c1c(O)c3c(c(O)c1C2=O)C[C@@](O)(C(=O)CO)C[C@@H]3O[C@H]1C[C@H](N*)[C@H](O)[C@H](C)O1; Hexanoyl(6-maleimido) = O=C1C=CC(=O)N1CCCCCC(=O)*; PABC = O=C(OCc1ccc(N[*:1])cc1)[*:2]

How the values were obtained:
[1] = Plasma concentration-time curves of doxorubicin content after intravenous administration to monkeys; type: in vivo; conditions: Cynomolgus monkeys, molar equivalent to 1 mg/kg of doxorubicin
Description: The pharmacokinetic profiles of the maleimide-KGDEVD-PABC-doxorubicin (SEQ ID NO: 10) and AcKGDEVD-PABC-doxorubicin (SEQ ID NO: 32) conjugates were determined after intravenous administration to Cynomolgus monkeys at a dose of molar equivalent to 1 mg/kg of doxorubicin (FIG. 28). Blood samples were collected at 15, 30, 45, 60, 90 minutes and then 2, 3, 4, 6, 8, 12, 24, 48, 72, 96, 120, 144, 168 hours post-injection (500 μl each). The collected blood samples were stabilized immediately with sodium citrate and centrifuged for 15 min at 2000×g in a refrigerated centrifuge to separate the plasma. The plasma samples (200 al) were transferred to a 96-well black microplate and the intrinsic fluorescence of doxorubicin was read at Ex 485 nm/Em 590 nm. A standard was prepared in fresh plasma and the fluorescence was read as described above.

[2] = Plasma concentration-time curve of doxorubicin content after intravenous administration to rats; type: in vivo; conditions: Sprague-Dawley rats, molar equivalent to 1 mg/kg of doxorubicin
Description: The pharmacokinetic profile of the maleimide-KGDEVD-PABC-doxorubicin (SEQ ID NO: 10) and AcKGDEVD-PABC-doxorubicin (SEQ ID NO: 32) conjugates was determined after intravenous administration to Sprague-Dawley rats at a dose of molar equivalent to 1 mg/kg of doxorubicin (FIG. 25). Blood samples were collected at 5, 15, 30, 60, 90 minutes and then 2, 4, 8, 12, 24, 48, 72, 96, 144 hours post-injection (500 μl each). The collected blood samples were stabilized immediately with sodium citrate and centrifuged for 15 min at 2000×g in a refrigerated centrifuge to separated plasma. The plasma samples (200 μl) were transferred to a 96-well black microplate and the intrinsic fluorescence of doxorubicin was read at Ex 485 nm/Em 590 nm. A standard was prepared in fresh plasma and fluorescence was read as described above.

[3] = biological target: T1, recombinant human caspase-3 (Homo sapiens, UniProt P42574); test: HPLC monitored cleavage study by recombinant human caspase-3; type: biochemical; conditions: incubated with purified caspase-3, HPLC
T1 sequence (P42574 29-175 limits assumed): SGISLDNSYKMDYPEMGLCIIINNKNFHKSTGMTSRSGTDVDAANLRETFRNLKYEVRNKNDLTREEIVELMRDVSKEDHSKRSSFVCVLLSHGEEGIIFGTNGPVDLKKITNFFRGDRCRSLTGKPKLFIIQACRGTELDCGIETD
T1 sequence (P42574 176-277 limits assumed): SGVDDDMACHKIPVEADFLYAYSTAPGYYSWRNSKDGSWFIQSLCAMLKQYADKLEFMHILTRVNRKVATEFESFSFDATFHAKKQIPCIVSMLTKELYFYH
Source text: Example 21—HPLC Monitored Cleavage Studies of Human Serum Albumin-Bound Maleimide-KGDEVD-PABC-Doxorubicin (SEQ ID NO: 10) (HSA-KGDEVD-PABC-Doxorubicin (SEQ ID NO: 31)) by Recombinant Human Caspase-3

Molecule: COc1cccc2c1C(=O)c1c(O)c3c(c(O)c1C2=O)C[C@@](O)(C(=O)CO)C[C@@H]3O[C@H]1C[C@H](NC(=O)OCc2ccc(NC(=O)[C@H](CC(=O)O)NC(=O)[C@@H](NC(=O)[C@H](CCC(=O)O)NC(=O)[C@H](CC(=O)O)NC(=O)CNC(=O)[C@H](CCCCN)NC(C)=O)C(C)C)cc2)[C@H](O)[C@H](C)O1 [AcKGDEVD-PABC-doxorubicin, Ac-Lys-Gly-Asp-Glu-Val-Asp-PABC-doxorubicin] (Ac-KGDEVD[PABC]-{Doxorubicin(3'-N)})
- time until plasma concentration decreased below the detection limit (5 ng/ml) [1]: ≤ 6 h
- terminal half-life ([1]; plasma fluorescence): 60 min
- time until plasma concentration decreased below the detection limit (5 ng/ml) [2]: ≤ 4 h
- half-life ([2]; rat, in vivo, plasma fluorescence, read-out: terminal half-life): 30 min

Molecule: COc1cccc2c1C(=O)c1c(O)c3c(c(O)c1C2=O)C[C@@](O)(C(=O)CO)C[C@@H]3O[C@H]1C[C@H](NC(=O)OCc2ccc(NC(=O)[C@H](CC(=O)O)NC(=O)[C@@H](NC(=O)[C@H](CCC(=O)O)NC(=O)[C@H](CC(=O)O)NC(=O)CNC(=O)[C@H](CCCCNC(=O)CCCCCN3C(=O)C=CC3=O)NC(C)=O)C(C)C)cc2)[C@H](O)[C@H](C)O1 [maleimide-KGDEVD-PABC-doxorubicin, Ac-Lys(EMC)-Gly-Asp-Glu-Val-Asp-PABC-doxorubicin] (Ac-K(Hexanoyl(6-maleimido))GDEVD[PABC]-{Doxorubicin(3'-N)})
- time the plasma concentration was detectable after administration [1]: more than 7 days
- time the conjugate lasted in plasma after administration [2]: more than 6 days

Molecule: HSA-maleimide-KGDEVD-PABC-doxorubicin
- time until free doxorubicin was completely liberated from the conjugate [3]: ≤ 1 h
